The target of this series is T1, RamB-His (Corynebacterium glutamicum ATCC 13032?) (UniProt Q8NTD8).
T1 sequence: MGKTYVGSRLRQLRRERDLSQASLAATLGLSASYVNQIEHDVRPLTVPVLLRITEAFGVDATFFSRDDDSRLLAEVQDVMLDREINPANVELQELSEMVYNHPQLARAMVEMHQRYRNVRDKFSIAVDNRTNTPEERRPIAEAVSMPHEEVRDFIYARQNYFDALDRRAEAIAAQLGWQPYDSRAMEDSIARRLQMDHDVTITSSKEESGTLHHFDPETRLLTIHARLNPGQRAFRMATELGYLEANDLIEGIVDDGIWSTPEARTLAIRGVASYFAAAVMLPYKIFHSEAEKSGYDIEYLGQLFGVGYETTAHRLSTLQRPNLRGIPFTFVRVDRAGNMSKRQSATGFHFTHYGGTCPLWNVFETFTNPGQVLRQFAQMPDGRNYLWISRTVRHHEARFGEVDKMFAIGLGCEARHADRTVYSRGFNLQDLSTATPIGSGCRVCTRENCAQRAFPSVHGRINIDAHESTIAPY
Briefly: EMSA. The note with it: EMSA: 100 mM Tris/HCl pH 7.5, 20% glycerol, 100 mM KCl, 20 mM MgCl2, 1 mM EDTA, 30 min room temperature, DNA 5-61 nM; pull-down bead equilibration: 20 mM …. (In general: In EMSA bound probe runs differently from free probe, usually more slowly.)

Among the data in PMC4448153 are binding values, retold here.

For the sequence “CGTCTAGATAAGACCTTGAAATGACTAACTCAGGCTAATTTGGTTAACAACTTATGAACTCTGGGCTATCGTTCGGCAAATTCTGCCACTACCCACATCTCACTCGTAACATTTGGAGACTCTAATCACAAAAATCGGCAATTTTCGACCCCTGCGGAACGAAAATCACCGATTCTTATTATTCTCACAGGTTTTTAGCAAGTCTCTTTTTTACTCGAGGGG (double strand) [RF4]”, the binding result is on record as “binds more weakly”.

With “CGTCTAGATGCGGACTGCTGGGAAGATGCACCTTCAGCAACGAGCTGACCGGTAACACCGGAAAGGCCCTCAATGGATGCAGCATCGGAAGAACCGGTGGAAGCTGCAGATGAGGAGGTGGAATCAGACTCATTGGAGTCGGAGCAAGCTACAAGAGCGAAGGAGCCTGCAGTAACTGCGCCCACAAGGGCGATGGAGCGCTTAAGAGTGAGGTTCACGGGGAAGCCTTTCCGGTTTAAGTGAAGACATCGTCTGAGCAGATCCTGTAGGCGGGCCTCGAGGGG (double strand) [R3F0]”, the binding entry is reported as “no binding”.

Turning to “CCCGATGTGGGTAGTGGCAGAATTTGCCGAACGATAGCCCAGAGTTCATAAGTTGTTAACCAAATTAGCCTGAGTTAGTCATTTCAAGGTCTTAGGTTTTTAAGTCGTGAGCAATCCGGAGGGAAACCG (double strand) [RcFc]”, the binding entry is on record as “binds”.
